Where no end group is shown, it is not given here. [ ]: non-standard residue; d: D form. The star is where a group is joined. Biotin = O=C1N[C@H]2[C@H](CS[C@H]2CCCCC(=O)*)N1; pY = N[C@@H](Cc1ccc(OP(=O)(O)O)cc1)C(=O)O

What all share (test): SPR
(SPR reads the build-up and loss of mass on a sensor chip optically.)

For assay [1], the target named is T1, GADS SH2 domain, His-tagged (UniProt O75791 58-149).
T1 chain: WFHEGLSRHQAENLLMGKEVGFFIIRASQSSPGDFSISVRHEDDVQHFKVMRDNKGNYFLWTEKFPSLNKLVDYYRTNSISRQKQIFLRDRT

In assay [2] the target is T2, SLP-76 SH2 domain, His-tagged (UniProt Q13094 422-530).
T2 chain: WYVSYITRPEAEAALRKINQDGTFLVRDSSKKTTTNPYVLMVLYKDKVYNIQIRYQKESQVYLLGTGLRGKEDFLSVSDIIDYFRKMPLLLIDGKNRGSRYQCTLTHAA

The target of a further assay is T3, CD28 pYMN peptide (Homo sapiens, UniProt P10747).
T3 chain: LLHSD[pY]MNMTPRR

In another assay the target is T4, CD6 long pY629 peptide (Homo sapiens, UniProt P30203, pY629).
T4 chain: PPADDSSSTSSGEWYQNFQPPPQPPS

B1: long CD6 peptide phosphorylated at Y629 (peptide)
peptide: Biotin-STSSGEW[pY]QNFQPPPQPPSEEQFGCPGSPSPQPDSTDNDDYDDISAA
The Kd is the constant that tells how readily two partners part at equilibrium. A higher Kd goes with lower affinity. B1 returned a Kd in assay [1] of 1000 nM.

B2: long CD6 peptide phosphorylated at Y629 and Y662 (peptide)
peptide: Biotin-STSSGEW[pY]QNFQPPPQPPSEEQFGCPGSPSPQPDSTDNDD[pY]DDISAA
As to B2, the Kd in assay [2] and in assay [1] was 1000 nM in each case.

B3: long CD6 peptide phosphorylated at Y662 (peptide)
peptide: Biotin-STSSGEWYQNFQPPPQPPSEEQFGCPGSPSPQPDSTDNDD[pY]DDISAA
For the molecule B3, in assay [2], binding was characterised by a dissociation constant (Kd) of 1000 nM.

B4: GADS SH2 (protein)
chain: FPKWFHEGLSRHQAENLLMGKEVGFFIIRASQSSPGDFSISVRHEDDVQHFKVMRDNKGNYFLWTEKFPSLNKLVDYYRTNSISRQKQIFLRDRTRED
B4: the values for the dissociation constant (Kd) in the assay with CD28 pYMN peptide and in the assay with CD6 long pY629 peptide were about 2500 nM and about 400 nM, respectively.
